US20220112276A1 (Janssen / Centocor, published 2022)
Numbering of substitutions follows the chain as printed.

T1: rat pIgR extracellular domain (rat, UniProt P15083 19-643)
T1 construct: extracellular domain
T1 sequence (looked up): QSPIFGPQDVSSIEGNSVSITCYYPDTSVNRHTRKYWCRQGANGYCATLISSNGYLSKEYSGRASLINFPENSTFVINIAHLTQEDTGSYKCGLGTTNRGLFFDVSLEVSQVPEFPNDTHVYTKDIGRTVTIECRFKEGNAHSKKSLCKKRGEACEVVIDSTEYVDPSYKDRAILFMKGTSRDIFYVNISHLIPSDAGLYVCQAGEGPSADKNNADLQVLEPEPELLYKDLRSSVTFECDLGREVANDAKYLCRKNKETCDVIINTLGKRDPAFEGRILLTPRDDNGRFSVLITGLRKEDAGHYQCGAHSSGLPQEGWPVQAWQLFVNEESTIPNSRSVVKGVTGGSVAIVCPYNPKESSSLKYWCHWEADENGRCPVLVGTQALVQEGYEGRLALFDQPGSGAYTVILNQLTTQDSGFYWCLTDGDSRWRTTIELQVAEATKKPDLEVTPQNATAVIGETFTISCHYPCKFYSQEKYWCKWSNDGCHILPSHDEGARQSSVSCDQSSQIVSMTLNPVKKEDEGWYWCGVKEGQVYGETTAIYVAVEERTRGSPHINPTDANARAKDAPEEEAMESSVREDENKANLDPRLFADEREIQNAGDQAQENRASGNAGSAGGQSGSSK

T2: mouse pIgR extracellular domain (ECD) (mouse, UniProt O70570 19-645)
T2 construct: Bought from R&D Systems (Cat 2800-PG-050); also called mpIgR ECD
T2 sequence: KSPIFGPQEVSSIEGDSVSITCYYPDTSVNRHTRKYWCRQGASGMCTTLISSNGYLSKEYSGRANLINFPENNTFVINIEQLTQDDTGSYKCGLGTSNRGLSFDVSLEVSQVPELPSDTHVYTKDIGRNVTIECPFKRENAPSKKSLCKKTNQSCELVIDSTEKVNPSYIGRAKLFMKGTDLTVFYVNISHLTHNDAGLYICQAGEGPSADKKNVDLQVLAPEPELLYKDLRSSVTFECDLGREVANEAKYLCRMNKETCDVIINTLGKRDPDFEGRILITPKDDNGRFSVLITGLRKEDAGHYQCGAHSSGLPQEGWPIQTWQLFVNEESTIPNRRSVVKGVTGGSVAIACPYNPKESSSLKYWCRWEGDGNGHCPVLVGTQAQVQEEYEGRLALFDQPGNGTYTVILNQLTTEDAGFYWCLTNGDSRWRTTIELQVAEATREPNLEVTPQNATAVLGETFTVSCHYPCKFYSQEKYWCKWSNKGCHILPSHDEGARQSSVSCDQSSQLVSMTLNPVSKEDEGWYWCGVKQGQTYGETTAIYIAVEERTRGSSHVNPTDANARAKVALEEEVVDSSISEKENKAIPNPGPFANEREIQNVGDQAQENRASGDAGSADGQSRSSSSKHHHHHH

B1: 01D05R2LS VHH Mono-Fc (Fc fusion)
chain: EVQLVESGGGLVQTGGSLRLSCAASGRTFSPYAMGWFRQAPGKEREFVAAIRWSGATTYKYVGDSVQGRFTISRDAAGNTVYLQMNSVKPEDTAVYYCAADRVPKDISIDPRNPKDWDYWGKGTLVTVSSSPAPELLGGPSVFLFPPKPKDTLMISRTPEVTCVVVDVSHEDPEVKFNWYVDGVEVHNAKTKPREEQYNSTYRVVSVLTVLHQDWLNGKEYKCKVSNKALPAPIEKTISKAKGQPREPQVYTKPPSREEMTKNQVSLSCLVKGFYPSDIAVEWESNGQPENNYKTTVPVLDSDGSFRLASYLTVDKSRWQQGNVFSCSVMHEALHNHYTQKSLSLSPGK
B2: 01H01R2LS VHH Mono-Fc (Fc fusion)
chain: B1 chain with D64G, L125Q
B3: 01B06R2LS VHH Mono-Fc (Fc fusion)
chain: B1 chain with E1Q
B4: 01H08R3 VHH Mono-Fc (Fc fusion)
chain: QVQLVESGGGSVQTGGSLRLSCTASGRTFSNYGMGWFRQAPGKEREFVAGITRSGRTTYYYYADAVKGRFTIPRDNADNTIYLQMDSMKPDDTAVYYCAARQGENNYDPRSGSAYNYWGPGTQVTVSSSPAPELLGGPSVFLFPPKPKDTLMISRTPEVTCVVVDVSHEDPEVKFNWYVDGVEVHNAKTKPREEQYNSTYRVVSVLTVLHQDWLNGKEYKCKVSNKALPAPIEKTISKAKGQPREPQVYTKPPSREEMTKNQVSLSCLVKGFYPSDIAVEWESNGQPENNYKTTVPVLDSDGSFRLASYLTVDKSRWQQGNVFSCSVMHEALHNHYTQKSLSLSPGK
B5: 01A06R3LS VHH Mono-Fc (Fc fusion)
chain: EVQLVESGGGVVQAEDSLRLSCAASGLPFSSSRMGWFRQAPGKEREFVAAIGWSGRSTYKYYADSVKGRFTVSGDNAKKTLDLQMKDLKPEDTAVYYCAAHPDYYGDPRTSGAYRYWGQGTQVTVSSSPAPELLGGPSVFLFPPKPKDTLMISRTPEVTCVVVDVSHEDPEVKFNWYVDGVEVHNAKTKPREEQYNSTYRVVSVLTVLHQDWLNGKEYKCKVSNKALPAPIEKTISKAKGQPREPQVYTKPPSREEMTKNQVSLSCLVKGFYPSDIAVEWESNGQPENNYKTTVPVLDSDGSFRLASYLTVDKSRWQQGNVFSCSVMHEALHNHYTQKSLSLSPGK
B6: 01B07R3L VHH Mono-Fc (Fc fusion)
chain: B5 chain with A40V, K60R, A63D, K79N, D87G, H101D, D103N, P108V, A113T, R115Q
B7: 01B08R2 VHH Mono-Fc (Fc fusion)
chain: EVQLVESGGRLVQAGGSLRLSCAASGLTRSDYAMGWFRQAPGKEREFVATLKWSEGSRFMYRAEDVKGRFTISSGAAKTTVWLDMDALNPEDTAVYYCAAGFNVGFVRRASEYNFWGQGTLVTVSSSPAPELLGGPSVFLFPPKPKDTLMISRTPEVTCVVVDVSHEDPEVKFNWYVDGVEVHNAKTKPREEQYNSTYRVVSVLTVLHQDWLNGKEYKCKVSNKALPAPIEKTISKAKGQPREPQVYTKPPSREEMTKNQVSLSCLVKGFYPSDIAVEWESNGQPENNYKTTVPVLDSDGSFRLASYLTVDKSRWQQGNVFSCSVMHEALHNHYTQKSLSLSPGK
B8: 01F04R2LS VHH Mono-Fc (Fc fusion)
chain: EVQLVESGGGLVQTGGSLRLSCAASGRTFSSYAMGWFRQAPGKEPERDFVAALRWSNDRTYYKYYADSVKGRFTISRDNAKNTVYLQMNTLKPEDTAVYYCAGGNYFSDPRVDKEYNYWGQGTQVTVSSSPAPELLGGPSVFLFPPKPKDTLMISRTPEVTCVVVDVSHEDPEVKFNWYVDGVEVHNAKTKPREEQYNSTYRVVSVLTVLHQDWLNGKEYKCKVSNKALPAPIEKTISKAKGQPREPQVYTKPPSREEMTKNQVSLSCLVKGFYPSDIAVEWESNGQPENNYKTTVPVLDSDGSFRLASYLTVDKSRWQQGNVFSCSVMHEALHNHYTQKSLSLSPGK
B9: 02B12R3 VHH Mono-Fc (Fc fusion)
chain: QVQLVESGGGWVQTGGSLRLSCAASGRTVSSYYMGWFRQTPGKEREFVAAISWVGSSTYKYYTDSAKGRFTISRDNAKNTVYLQMNSLKPEDTAVYYCAARPRVGDPRSRYDDDNWGQGTQVTVSSSPAPELLGGPSVFLFPPKPKDTLMISRTPEVTCVVVDVSHEDPEVKFNWYVDGVEVHNAKTKPREEQYNSTYRVVSVLTVLHQDWLNGKEYKCKVSNKALPAPIEKTISKAKGQPREPQVYTKPPSREEMTKNQVSLSCLVKGFYPSDIAVEWESNGQPENNYKTTVPVLDSDGSFRLASYLTVDKSRWQQGNVFSCSVMHEALHNHYTQKSLSLSPGK
B10: 01A09R3L VHH Mono-Fc (Fc fusion)
chain: EVQLVESGGGVVQAEDSLRLSCAASGLSFSLSRMGWFRQAPGKEREFVATIEWSGRSTYKYYDDSVKGRFAVSGDNTKNTMNLQMKGLNLEDTGVYYCAANPNNYGDPRTPGAYQYWGQGTQVTVSSSPAPELLGGPSVFLFPPKPKDTLMISRTPEVTCVVVDVSHEDPEVKFNWYVDGVEVHNAKTKPREEQYNSTYRVVSVLTVLHQDWLNGKEYKCKVSNKALPAPIEKTISKAKGQPREPQVYTKPPSREEMTKNQVSLSCLVKGFYPSDIAVEWESNGQPENNYKTTVPVLDSDGSFRLASYLTVDKSRWQQGNVFSCSVMHEALHNHYTQKSLSLSPGK
B11: 01B12R2 VHH Mono-Fc (Fc fusion)
chain: EVQLVESGGGLVQAGGSLRLSCAASGRTFSSGIMGWFRQAPGKEREFVAAIEWSGGNTYKYYAESVKGRFAISRDNAKTTAYLQMGSLNPEDTALYYCAADESPSRYIDLRRPAPYHYWGQGTLVTVSSSPAPELLGGPSVFLFPPKPKDTLMISRTPEVTCVVVDVSHEDPEVKFNWYVDGVEVHNAKTKPREEQYNSTYRVVSVLTVLHQDWLNGKEYKCKVSNKALPAPIEKTISKAKGQPREPQVYTKPPSREEMTKNQVSLSCLVKGFYPSDIAVEWESNGQPENNYKTTVPVLDSDGSFRLASYLTVDKSRWQQGNVFSCSVMHEALHNHYTQKSLSLSPGK
B12: 01G09R3LS VHH Mono-Fc (Fc fusion)
chain: EVQLVESGGGLVQAGDSLRLSCAASGRTFPTYAMGWFRQAPGKEREFVATIRWSGSTQYKYYADFVKGRFTISRDNAKNTVYLQMDSLKPEDTAVYYCAATTLLTDPRALNAYAYWGQGTQVTVSSSPAPELLGGPSVFLFPPKPKDTLMISRTPEVTCVVVDVSHEDPEVKFNWYVDGVEVHNAKTKPREEQYNSTYRVVSVLTVLHQDWLNGKEYKCKVSNKALPAPIEKTISKAKGQPREPQVYTKPPSREEMTKNQVSLSCLVKGFYPSDIAVEWESNGQPENNYKTTVPVLDSDGSFRLASYLTVDKSRWQQGNVFSCSVMHEALHNHYTQKSLSLSPGK
B13: 01A07R3LS VHH Mono-Fc (Fc fusion)
chain: B12 chain with E1Q, T105G, A112E

target: T3, human pIgR extracellular domain (ECD) (human, UniProt P01833 19-638); experiment: SPR, VHH captured by anti-Fc, ECD analyte
T3 construct: Bought from R&D Systems (Cat 2717-PG-050); also called hpIgR ECD
T3 sequence (P01833 other isoform, or with tags, fused parts or gaps): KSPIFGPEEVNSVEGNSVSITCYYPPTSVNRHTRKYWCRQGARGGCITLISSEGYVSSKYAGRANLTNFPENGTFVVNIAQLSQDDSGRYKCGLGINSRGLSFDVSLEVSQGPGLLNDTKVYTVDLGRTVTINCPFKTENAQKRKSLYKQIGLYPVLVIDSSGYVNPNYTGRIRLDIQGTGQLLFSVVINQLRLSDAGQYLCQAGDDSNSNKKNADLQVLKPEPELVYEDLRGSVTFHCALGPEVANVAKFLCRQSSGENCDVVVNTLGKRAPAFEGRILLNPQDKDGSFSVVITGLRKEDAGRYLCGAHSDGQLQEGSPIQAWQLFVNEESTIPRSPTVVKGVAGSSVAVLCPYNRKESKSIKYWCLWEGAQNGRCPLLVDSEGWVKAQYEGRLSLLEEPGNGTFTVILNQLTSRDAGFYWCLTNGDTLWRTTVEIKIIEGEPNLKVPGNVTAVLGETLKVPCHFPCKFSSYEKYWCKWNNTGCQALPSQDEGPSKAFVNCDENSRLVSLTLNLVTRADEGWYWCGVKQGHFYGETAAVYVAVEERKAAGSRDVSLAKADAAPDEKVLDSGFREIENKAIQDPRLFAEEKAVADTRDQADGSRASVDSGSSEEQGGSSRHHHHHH
Outline: (§1)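 Single-cycle kinetics: ECD analyte from 30 nM, 3-fold series, low to high, with 30 min off-rate monitoring, over VHH captured at 0.5 ug/ml (~200-300 RU). HBSP plus 100 ug/ml BSA at 30 μL/min. Reference cell and buffer blank subtracted; global 1:1 Langmuir fit gave kon, koff, KD.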

| Binder | Kd |
| --- | --- |
| B1 | 0.0079 µM |
| B2 | 0.00691 µM |
| B3 | 0.00846 µM |
| B4 | 0.061 µM |
| B5 | 0.029 µM |
| B6 | 0.0587 µM |
| B7 | 0.00105 µM |
| B8 | 0.0358 µM |
| B9 | 0.0166 µM |
| B10 | 0.000681 µM |
| B11 | 0.00448 µM |
| B12 | 0.00577 µM |
| B13 | 0.0286 µM |

target: T1, rat pIgR extracellular domain; experiment: SPR, VHH captured by anti-Fc, ECD analyte
Outline: as §1

| Binder | Kd |
| --- | --- |
| B1 | 0.0333 µM |
| B2 | 0.0181 µM |
| B3 | 0.0332 µM |
| B4 | 0.00619 µM |
| B5 | 0.00923 µM |
| B6 | 0.00851 µM |
| B7 | 0.116 µM |
| B8 | 0.0089 µM |
| B9 | 0.00344 µM |
| B10 | 0.000234 µM |
| B11 | 0.0182 µM |
| B12 | 0.00427 µM |
| B13 | 0.00685 µM |

target: T2, mouse pIgR extracellular domain (ECD); experiment: SPR, VHH captured by anti-Fc, ECD analyte
Outline: as §1

| Binder | Kd |
| --- | --- |
| B1 | 0.0139 µM |
| B2 | 0.0128 µM |
| B3 | 0.0148 µM |
| B4 | 0.00395 µM |
| B5 | 0.00226 µM |
| B6 | 0.00348 µM |
| B7 | 0.586 µM |
| B8 | 0.00903 µM |
| B9 | 0.00432 µM |
| B10 | 0.000301 µM |
| B11 | 0.107 µM |
| B12 | 0.00571 µM |
| B13 | 0.00893 µM |

target: T4, cynomolgus monkey pIgR extracellular domain (cynomolgus monkey, UniProt A0A2K5WMU9 19-638); experiment: SPR, VHH captured by anti-Fc, ECD analyte
T4 construct: extracellular domain
T4 sequence (A0A2K5WMU9 entry or part of it): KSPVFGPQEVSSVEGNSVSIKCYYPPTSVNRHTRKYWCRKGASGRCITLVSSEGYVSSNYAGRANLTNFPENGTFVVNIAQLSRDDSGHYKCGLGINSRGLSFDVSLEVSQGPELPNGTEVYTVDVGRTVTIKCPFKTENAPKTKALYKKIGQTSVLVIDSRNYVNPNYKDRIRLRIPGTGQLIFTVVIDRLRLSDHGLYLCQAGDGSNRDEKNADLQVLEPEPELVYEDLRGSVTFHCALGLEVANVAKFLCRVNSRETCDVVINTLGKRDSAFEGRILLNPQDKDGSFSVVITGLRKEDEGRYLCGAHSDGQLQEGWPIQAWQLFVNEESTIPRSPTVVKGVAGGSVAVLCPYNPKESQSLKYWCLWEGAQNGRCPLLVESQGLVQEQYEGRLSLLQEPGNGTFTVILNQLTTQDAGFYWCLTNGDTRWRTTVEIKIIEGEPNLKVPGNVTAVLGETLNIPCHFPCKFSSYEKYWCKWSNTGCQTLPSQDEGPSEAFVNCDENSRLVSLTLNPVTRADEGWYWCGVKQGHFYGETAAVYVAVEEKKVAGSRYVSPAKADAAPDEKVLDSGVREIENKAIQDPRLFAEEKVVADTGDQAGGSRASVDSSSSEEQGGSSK
Outline: as §1

| Binder | Kd |
| --- | --- |
| B1 | 0.116 µM |
| B2 | 0.123 µM |
| B3 | 0.111 µM |
| B4 | 0.0443 µM |
| B5 | 0.112 µM |
| B6 | 0.138 µM |
| B7 | 0.219 µM |
| B8 | 0.028 µM |
| B9 | 0.0315 µM |
| B10 | 0.000353 µM |
| B11 | 0.00654 µM |
| B12 | 0.01 µM |
| B13 | 0.0101 µM |
